Experimental data published in paper PMC9352680, “A comprehensive thermodynamic model for RNA binding by the Saccharomyces cerevisiae Pumilio protein PUF4”.

T1: PUF4 RNA-binding domain (Saccharomyces cerevisiae, UniProt P25339 537-888)
T1 sequence: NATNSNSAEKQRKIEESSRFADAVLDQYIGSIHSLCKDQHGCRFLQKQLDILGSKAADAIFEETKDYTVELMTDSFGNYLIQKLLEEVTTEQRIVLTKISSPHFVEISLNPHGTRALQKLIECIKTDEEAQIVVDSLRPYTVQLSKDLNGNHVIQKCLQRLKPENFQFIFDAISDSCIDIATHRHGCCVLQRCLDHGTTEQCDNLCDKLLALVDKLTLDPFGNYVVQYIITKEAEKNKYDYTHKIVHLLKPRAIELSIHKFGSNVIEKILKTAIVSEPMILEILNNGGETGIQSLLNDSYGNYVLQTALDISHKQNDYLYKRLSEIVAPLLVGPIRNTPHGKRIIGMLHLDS


biological target: T1, PUF4 RNA-binding domain; assay: Mg; RNA-MaP; 20 mM Na-HEPES pH 7.4, 30 mM KOAc, 0.75 mM MgCl2, 0.1% Tween-20, 5% glycerol, 0.1 mg/mL BSA, 2 mM DTT; 25 C; 0.0125-409.6 nM protein; conditions: tags: N-His6-TEV cleaved; C-SNAP kept, Cy3B-labelled; label: tethered on chip by stalled RNA polymerase

Binder	Kd [nM]
ACAAACUGUCCUCAUAUUAACAAAC (ssRNA) [Ie_S3_P4E.1_K4.1_C4.1_H4.1_[+3CCTC]_A4.1_F4.1_T4.1]	650
ACAAACUGCUUUAUUAUUAACAAAC (ssRNA) [Ie_S3_P5E.1_K5.1_C5.1_H5.1_[+2CTT]_A5.1_F5.1_T5.1]	> 2300
ACAAACUGUAUCUCUCUAUUAACAAAC (ssRNA) [Ie_S3_P5E.1_K5.1_C5.1_H5.1_A5.1_[+5CTCTC]_F5.1_T5.1]	30.4
ACAAACUCUCGUAUUAUUAACAAAC (ssRNA) [Ie_S3_P5E.1_K5.1_C5.1_H5.1_[+1CTC]_A5.1_F5.1_T5.1]	1830
ACAAACUGUAUAUUUCUCAACAAAC (ssRNA) [Ie_S3_P4E.1_K4.1_C4.1_H4.1_A4.1_F4.1_[+8TCTC]_T4.1]	8.77
ACAAACUGUAUUACUCUCUUAACAAAC (ssRNA) [Ie_S3_P5E.1_K5.1_C5.1_H5.1_A5.1_[+7CTCTC]_F5.1_T5.1]	128
ACAAACUGCUUUAUAUUAACAAAC (ssRNA) [Ie_S3_P4E.1_K4.1_C4.1_H4.1_[+2CTT]_A4.1_F4.1_T4.1]	896
ACAAACUGUAUAUUCCCUAACAAAC (ssRNA) [Ie_S3_P4E.1_K4.1_C4.1_H4.1_A4.1_F4.1_[+8CCCT]_T4.1]	6.57
ACAAACUGUCUCUAUUAUUAACAAAC (ssRNA) [Ie_S3_P5E.1_K5.1_C5.1_H5.1_[+3CTCT]_A5.1_F5.1_T5.1]	366
ACAAACUGUCUCUUAUUAUUAACAAAC (ssRNA) [Ie_S3_P5E.1_K5.1_C5.1_H5.1_[+2TCTCT]_A5.1_F5.1_T5.1]	513
ACAAACUGUCCUAUUAUUAACAAAC (ssRNA) [Ie_S3_P5E.1_K5.1_C5.1_H5.1_[+2TCC]_A5.1_F5.1_T5.1]	101
ACAAACCUUGCCCUUUAUAUAUAACAAAC (ssRNA) [Ie_S3_P3E.2_K3.1_C3.2_H3.1_[+2CCCTT]_A3.1_F3.1_T3.2]	1020
ACAAACUGUAUUCCUAUUAACAAAC (ssRNA) [Ie_S3_P4E.1_K4.1_C4.1_H4.1_[+4TTCC]_A4.1_F4.1_T4.1]	9.85
ACAAACUGUAUUACUUUUAACAAAC (ssRNA) [Ie_S3_P5E.1_K5.1_C5.1_H5.1_A5.1_[+7CTT]_F5.1_T5.1]	115
Ie_S2_P5E.1_K5.1_C5.1_H5.1_A5.1_F5.1_[+10TTCC]_T5.1 (ssRNA) RNA: UUUGAUUAAUAUGAUAUCGUUCUUUCUUGUAUUAUUAUUCCUUCUUUCUCGAUAUCAUAUUAAUCUUU	2.02
ACAAACUGCCUCUAUAUUAACAAAC (ssRNA) [Ie_S3_P4E.1_K4.1_C4.1_H4.1_[+2CCTC]_A4.1_F4.1_T4.1]	> 2300
ACAAACUGUCCCUUAUUAUUAACAAAC (ssRNA) [Ie_S3_P5E.1_K5.1_C5.1_H5.1_[+3CCCTT]_A5.1_F5.1_T5.1]	698
ACAAACUGUAUAUUCCUAACAAAC (ssRNA) [Ie_S3_P4E.1_K4.1_C4.1_H4.1_A4.1_[+7TCC]_F4.1_T4.1]	7.23
ACAAACUGUAUUUCUCUAUUAACAAAC (ssRNA) [Ie_S3_P5E.1_K5.1_C5.1_H5.1_A5.1_[+6TCTCT]_F5.1_T5.1]	38.4
ACAAACUGUCCCUAUAUUAACAAAC (ssRNA) [Ie_S3_P4E.1_K4.1_C4.1_H4.1_[+3CCCT]_A4.1_F4.1_T4.1]	602

Binder	Kd [nM]
ACAAACUGCCCUAUAUUAACAAAC (ssRNA) [Ie_S3_P4E.1_K4.1_C4.1_H4.1_[+2CCC]_A4.1_F4.1_T4.1]	1560
ACAAACUGUCCUAUAUUAACAAAC (ssRNA) [Ie_S3_P4E.1_K4.1_C4.1_H4.1_[+3CCT]_A4.1_F4.1_T4.1]	59.9
ACAAACCUUCCUCGUAUAUAUAACAAAC (ssRNA) [Ie_S3_P3E.2_K3.1_C3.2_H3.1_[+1CCTC]_A3.1_F3.1_T3.2]	565
ACAAACUGUAUAUCUCUCUAACAAAC (ssRNA) [Ie_S3_P4E.1_K4.1_C4.1_H4.1_A4.1_[+7CTCTC]_F4.1_T4.1]	14.6
ACAAACUGCUAUAUUAACAAAC (ssRNA) [Ie_S3_P4E.1_K4.1_C4.1_H4.1_[+2C]_A4.1_F4.1_T4.1]	672
ACAAACUGUCUAUUAUUAACAAAC (ssRNA) [Ie_S3_P5E.1_K5.1_C5.1_H5.1_[+3CT]_A5.1_F5.1_T5.1]	28.6
ACAAACCUUGCCUCUUAUAUAUAACAAAC (ssRNA) [Ie_S3_P3E.2_K3.1_C3.2_H3.1_[+2CCTCT]_A3.1_F3.1_T3.2]	1010
Ie_S2_P5E.1_K5.1_C5.1_H5.1_A5.1_F5.1_[+10TCTCT]_T5.1 (ssRNA) RNA: UUUGAUUAAUAUGAUAUCGUUCUUUCUUGUAUUAUUAUCUCUUUCUUUCUCGAUAUCAUAUUAAUCUUU	2.21
Ie_S2_P5E.1_K5.1_C5.1_H5.1_A5.1_F5.1_[+10TTCCT]_T5.1 (ssRNA) RNA: UUUGAUUAAUAUGAUAUCGUUCUUUCUUGUAUUAUUAUUCCUUUCUUUCUCGAUAUCAUAUUAAUCUUU	1.84
ACAAACUGUACCUCUUUAUUAACAAAC (ssRNA) [Ie_S3_P5E.1_K5.1_C5.1_H5.1_[+4CCTCT]_A5.1_F5.1_T5.1]	52.5
ACAAACUGUAUUACCCUUAACAAAC (ssRNA) [Ie_S3_P5E.1_K5.1_C5.1_H5.1_A5.1_[+7CCC]_F5.1_T5.1]	510
ACAAACUGUACCUCUUAUUAACAAAC (ssRNA) [Ie_S3_P5E.1_K5.1_C5.1_H5.1_[+4CCTC]_A5.1_F5.1_T5.1]	27.2
ACAAACCUUUCGUAUAUAUAACAAAC (ssRNA) [Ie_S3_P3E.2_K3.1_C3.2_H3.1_[+1TC]_A3.1_F3.1_T3.2]	927
ACAAACUGUAUAUUAUUCCACAAAC (ssRNA) [Ie_S3_P4E.1_K4.1_C4.1_H4.1_A4.1_F4.1_[+9TTCC]_T4.1]	0.554
ACAAACUGUAUCCCUAUUAACAAAC (ssRNA) [Ie_S3_P5E.1_K5.1_C5.1_H5.1_A5.1_[+5CCC]_F5.1_T5.1]	24.3
ACAAACUGUAUUUCUAUUAACAAAC (ssRNA) [Ie_S3_P5E.1_K5.1_C5.1_H5.1_A5.1_[+6TCT]_F5.1_T5.1]	7.3
ACAAACUCUCUCGUAUAUUAACAAAC (ssRNA) [Ie_S3_P4E.1_K4.1_C4.1_H4.1_[+1CTCTC]_A4.1_F4.1_T4.1]	69.5
ACAAACUGCUUAUAUUAACAAAC (ssRNA) [Ie_S3_P4E.1_K4.1_C4.1_H4.1_[+2CT]_A4.1_F4.1_T4.1]	1800
ACAAACUGCUCUAUAUUAACAAAC (ssRNA) [Ie_S3_P4E.1_K4.1_C4.1_H4.1_[+2CTC]_A4.1_F4.1_T4.1]	1270
ACAAACUGUAUCCCUUUAUUAACAAAC (ssRNA) [Ie_S3_P5E.1_K5.1_C5.1_H5.1_A5.1_[+5CCCTT]_F5.1_T5.1]	92.6

Binder	Kd [nM]
ACAAACUGUACCUCUAUUAACAAAC (ssRNA) [Ie_S3_P4E.1_K4.1_C4.1_H4.1_[+4CCTC]_A4.1_F4.1_T4.1]	14.7
ACAAACUGUACCCUUUUAUUAACAAAC (ssRNA) [Ie_S3_P5E.1_K5.1_C5.1_H5.1_[+4CCCTT]_A5.1_F5.1_T5.1]	30.4
ACAAACUGUACUCUUAUUAACAAAC (ssRNA) [Ie_S3_P5E.1_K5.1_C5.1_H5.1_[+4CTC]_A5.1_F5.1_T5.1]	7.73
ACAAACCUUUUCCGUAUAUAUAACAAAC (ssRNA) [Ie_S3_P3E.2_K3.1_C3.2_H3.1_[+1TTCC]_A3.1_F3.1_T3.2]	1200
ACAAACCUUGCCUUAUAUAUAACAAAC (ssRNA) [Ie_S3_P3E.2_K3.1_C3.2_H3.1_[+2CCT]_A3.1_F3.1_T3.2]	1170
ACAAACUGUAUUCCCAUUAACAAAC (ssRNA) [Ie_S3_P5E.1_K5.1_C5.1_H5.1_A5.1_[+6CCC]_F5.1_T5.1]	203
ACAAACUGUAUAUUCUCUAACAAAC (ssRNA) [Ie_S3_P4E.1_K4.1_C4.1_H4.1_A4.1_[+7TCTC]_F4.1_T4.1]	6.81
Ib_S2_P3E.1_K3.1_C3.1_H3.1_[G2A]_[A4T]_A3.1_F3.1_T3.1 (ssRNA) RNA: UUUGAUUAAUAUGAUAUCGUUCUUUCUUAUUUAUAUUCUUUCUCGAUAUCAUAUUAAUCUUU	> 2300
Ib_S2_P3E.1_K3.1_C3.1_H3.1_[T1C]_A3.1_[T5A]_F3.1_T3.1 (ssRNA) RNA: UUUGAUUAAUAUGAUAUCGUUCUUUCUCGUAAAUAUUCUUUCUCGAUAUCAUAUUAAUCUUU	> 2300
Ib_S2_P3E.1_K3.1_C3.1_H3.1_[T3C]_[A4G]_A3.1_F3.1_T3.1 (ssRNA) RNA: UUUGAUUAAUAUGAUAUCGUUCUUUCUUGCGUAUAUUCUUUCUCGAUAUCAUAUUAAUCUUU	1100
Ib_S2_P3E.1_K3.1_C3.1_H3.1_[T1A]_A3.1_[T5C]_F3.1_T3.1 (ssRNA) RNA: UUUGAUUAAUAUGAUAUCGUUCUUUCUAGUACAUAUUCUUUCUCGAUAUCAUAUUAAUCUUU	> 2300
Ib_S2_P3E.1_K3.1_C3.1_H3.1_[T1G]_A3.1_[A6G]_F3.1_T3.1 (ssRNA) RNA: UUUGAUUAAUAUGAUAUCGUUCUUUCUGGUAUGUAUUCUUUCUCGAUAUCAUAUUAAUCUUU	277
Ie_S2_P5E.1_K5.1_C5.1_H5.1_A5.1_F5.1_[+10TTC]_T5.1 (ssRNA) RNA: UUUGAUUAAUAUGAUAUCGUUCUUUCUUGUAUUAUUAUUCUUCUUUCUCGAUAUCAUAUUAAUCUUU	2.01
Ie_S2_P5E.1_K5.1_C5.1_H5.1_A5.1_F5.1_[+10TCT]_T5.1 (ssRNA) RNA: UUUGAUUAAUAUGAUAUCGUUCUUUCUUGUAUUAUUAUCUUUCUUUCUCGAUAUCAUAUUAAUCUUU	3.7
Ie_S2_P5E.1_K5.1_C5.1_H5.1_A5.1_F5.1_[+10TTT]_T5.1 (ssRNA) RNA: UUUGAUUAAUAUGAUAUCGUUCUUUCUUGUAUUAUUAUUUUUCUUUCUCGAUAUCAUAUUAAUCUUU	1.17
ACAAACUGUAUUACCUUUAACAAAC (ssRNA) [Ie_S3_P5E.1_K5.1_C5.1_H5.1_A5.1_[+7CCT]_F5.1_T5.1]	221
ACAAACUGCCUCUAUUAUUAACAAAC (ssRNA) [Ie_S3_P5E.1_K5.1_C5.1_H5.1_[+2CCTC]_A5.1_F5.1_T5.1]	> 2300
ACAAACUGCUUAUUAUUAACAAAC (ssRNA) [Ie_S3_P5E.1_K5.1_C5.1_H5.1_[+2CT]_A5.1_F5.1_T5.1]	> 2300
